Key:
[1] = molecular target: SARS-CoV-2 Omicron BA.1 (B.1.1.529) RBD (SARS-CoV-2 Omicron BA.1 (B.1.1.529), strain)
SARS-CoV-2 wildtype S1 = SARS-CoV-2 wildtype S1 (SARS-CoV-2 wildtype (Wuhan), UniProt P0DTC2)
[2] = molecular target: SARS-CoV-2 Beta (B.1.351) S1 (SARS-CoV-2 Beta (B.1.351), strain)
[3] = molecular target: SARS-CoV-2 Delta (B.1.617.2) S1 (SARS-CoV-2 Delta (B.1.617.2), strain)
[4] = molecular target: SARS-CoV-2 Gamma (P.1) S1 (SARS-CoV-2 Gamma (P.1), strain)
[5] = molecular target: SARS-CoV-2 Kappa (B.1.617.1) spike ECD (SARS-CoV-2 Kappa (B.1.617.1), strain)
[6] = molecular target: SARS-CoV-2 Lambda (C.37) RBD (SARS-CoV-2 Lambda (C.37), strain)
S-R/Wildtype spike = S-R/Wildtype spike (SARS-CoV-2 hCoV-19/Wuhan/WIV04/2019, UniProt P0DTC2, stabilised)
[7] = molecular target: Delta spike (based on S-R/Wildtype spike) (SARS-CoV-2 Delta (B.1.617.2), L452R | T478K)
[8] = molecular target: Omicron BA.1 spike (based on S-R/Wildtype spike) (SARS-CoV-2 Omicron BA.1 (B.1.1.529), S371L | S373P | S375F | K417N)

Measured: binding result

B1: YB12-197 (antibody, V domains shown)
VH: EVQLVESGGGLVQPGGSLRLSCAASGFTVSSNYMNWVRQAPGKGLEWVSVIYSGGSTFYADSVKGRFTISRDNSKNTLYLQMNSLRAEDTAVYYCARDAYNYGANWGQGTLVTVSS
VL: HLVLTQSPSASASLGASVKLTCTLSSGHSNNAIAWHQQQPEKGPRYLMHLNSDGSHTKGDGIPDRFSGSSSGAERYLTISSLQSEDEAEYYCQTWGTDIHWVFGGGTKLTVR
binds: all assays above

B2: YB13-281 (antibody, V domains shown)
VH: EVQLVESGGGLVKPGGSLRLSCAASGFTFSSYSMNWVRQAPGKGLEWVSSISSSSSYIHYADSVKGRFTISRDNAKNSLYLQMNSLRAEDTAVYYCARVSSKDYYDRSGYLRGDYDYGMDVWGQGTTVTVSS
VL: QSVLTQPPSVSGAPGQRVTISCTGNSSNIGAAYDVHWYQQLPGTAPKLLIYGNSNRPSGVPDRFSGSKSGTSASLAITGLQAEDEADYYCQSYDSSLSGVFGGGTKLTVL
binds: all assays above

B3: YB9-120 (antibody, V domains shown)
VH: QVQLQESGPGLVKPSGTLSLTCAVSGGSIRTTKWWSWVRQPPGKGLEWIGEIHHGGNTNYNPSLKSRVTISVDKSKNQFSLKLTSVTAADTAVYYCARDGGGVGTPLEYWGQGTLVTVSS
VL: QSGLTQPASVSGSPGQSITISCTGTISDVGAYNYVSWYQQHPGRAPKVVIYDVSERPSGTSNRFSGSKSGNTASLTISGLQAEDEADYYCSSFTNTTPVVFGGGTKLTVL
binds: all assays above

B4: YB13-208 (antibody, V domains shown)
V domain 1: QITLKESGPTLVKPTQTLTLTCTFSGLSLSTSGVSVGWIRQPPGKAPEWLALIYWDDDKRYSPSLTSRLSITKDTSKNQVVLTMTNMDPVDTATYYCAHPRYYGDSSGYYWIWGQGTMVTVSS
V domain 2: SYELTQPPSVSVSPGQTARITCSGDALPKQYAYWYQQKPGQAPVVVMYKTSERPSGIPERFSGSSSGTTVTLTISGVQAEDEADYYCQSADSSGFYVFGTGTQVTVL
not listed: [1]
binds: all other assays above
